Where “and” joins values, the source holds several entries; their conditions need not be identical. Equal values may be shown once.
Target: DENV-4 parental viruses
Test: cell-based or functional assay

B1: Humanized IgG 5H2 ΔD (IgG1 5H2 with a 9-amino-acid deletion, positions 231-239, at the N-terminus of the CH2 domain) (antibody)
heavy: EVQLLESGPGLVKPSETLSLTCTVSGGSISDFYWSWLRQSPGKGLEWIGYAHSRVSAYYNPSLKSRVTISVDTSKNQLSLRLSAVTAADTALYYCARQGTGTTGVSEDFFDLWGQGTKVIVSLASTKGPSVFPLAPSSKSTSGGTAALGCLVKDYFPEPVTVSWNSGALTSGVHTFPAVLQSSGLYSLSSVVTVPSSSLGTQTYICNVDHKPSNTKVDKKVEPKSCDKTHTCPPCPVFLFPPKPKDTLMISRTPEVTCVVVDVSHEDPEVKFNWYVDGVEVHNAKTKPREEQYNSTYRVVSVLTVLHQDWLNGKEYKCKVSNKALPAPIEKTISKAKGQPREPQVYTLPPSRDELTKNQVSLTCLVKGFYPSDIAVEWESNGQPENNYKTTPPVLDSDGSFFLYSKLTVDKSRWQQGNVFSCSVMHEALHNHYTQKSLSLSPGK
light: not shown
B1 was tested, and the PRNT50 titer was 0.03 µg/mL and 0.05 µg/mL.
